# Publication PMC4072576 (Molecular Biology of the Cell, 2014)
# B1: His-ctxII (recombinant N-terminal His-tagged cortexillin II) (natural protein)
# chain: MDLNKEWEKVQEMAFTSWVNSVLEKRGCDKISDVSTDLSDGVKLIYFLESVSGKKFPKKFDLEPKTRIMRVQNLHLAMLFIDEDLKIKVQGVAAEEFVDNNKKMILGFLWTLYRKYRISVINEGDKSSEEGLLAWCKKTTEGYNNVNITGFKSSFRDGHGFLALAHKYDPTVFKYDEYEGHDNIARLNAAFDFAEKGLGIPKLLEAESLSKGNVDERSIVLYTSLFFHAFRAKEEREALEASQNSLNNKLASLEQSLEGEKHSQEELVKQKKDLEDALNKIREQNDNRNSRITDLQSKIDDALRGLDDEKLAKLDLESRLAKCEKDKAILELKLAEILDEKDRLEKKIDEDKKRAEAERLGLGLIRQHLAAQFSDIHKWQSFLEHPETVPYTGTPVDLDSELSSLSFEEQAKKLASKLESENILIEKYLNGKEEAKAAAKK
# B2: His-ctxI (recombinant N-terminal His-tagged cortexillin I) (natural protein)
# chain: MAGKDWEIVQEKAFTAWVNSVLDKRGEKISDVGKDLSDGVKLIFFLELISSKKFNKKYDFEPKARINMIQNVALALKFLDEELKIKVQGIGSEDFVDNNKKMILGFLWTLYRKYRIAVISEGDKSSEEGLLLWCKNTTTGYDGVNITSFTKSFRDGLAFLALSHKFEPESFKFQEFEAMDPIARLNAAFDFAEKGLGVPKLLEAEEVMRGTTDERSLVLYTSLFFHAYRAKEEKARLESSKNEMANRLAGLENSLESEKVSREQLIKQKDQLNSLLASLESEGAEREKRLRELEAKLDETLKNLELEKLARMELEARLAKTEKDRAILELKLAEAIDEKSKLEQQIEATRIRGAAEAQGLGLLRKNLDTHVHDLLKWQKLTMENSSSSSIDDQIIVEVSGLPFGEQVKHLATKLEAENLAIMKLLNQKEDDLKAQKLKSSKSKK
# Biological target: F-actin (rabbit muscle actin) (rabbit, UniProt P68135 1-377)
# Assay: co-sedimentation
Binder,binding result,Kd [nM],stoichiometry N
B1,binds,–,–
B2,–,~200,~4 actin subunits per ctxI homodimer
